Article PMC10746786 (2023)

Key:
PRRC2A = assay: co-immunoprecipitation followed by mass spectrometry; conditions: FLAG-tagged EIF4G2 transfected into HEK293T cells; corrected for EIF4G2 levels in IP; read off a plot
PRRC2B = assay: as above; conditions: FLAG-tagged EIF4G2 transfected into HEK293T cells; corrected for EIF4G2 levels in IP; read off a plot

Substance	ratio to parent (PRRC2A)	ratio to parent (PRRC2B)
FLAG-tagged EIF4G2 WT (from UniProt P78344) R165C	3	–
FLAG-tagged EIF4G2 WT (from UniProt P78344) R178Q	3	2.3
